The test system of this data set is internally quenched peptide probe (MCA)-Gly-Ser-Ala-Ile-Ala-Leu-Tyr-Gly-Gly-Ser-Lys (DNP)-D-Arg with CM AIALY (SEQ ID NO: 5).

Chain of human recombinant MMP9 (R&D Systems, catalog No: 911-MP) (chain, as listed by the source): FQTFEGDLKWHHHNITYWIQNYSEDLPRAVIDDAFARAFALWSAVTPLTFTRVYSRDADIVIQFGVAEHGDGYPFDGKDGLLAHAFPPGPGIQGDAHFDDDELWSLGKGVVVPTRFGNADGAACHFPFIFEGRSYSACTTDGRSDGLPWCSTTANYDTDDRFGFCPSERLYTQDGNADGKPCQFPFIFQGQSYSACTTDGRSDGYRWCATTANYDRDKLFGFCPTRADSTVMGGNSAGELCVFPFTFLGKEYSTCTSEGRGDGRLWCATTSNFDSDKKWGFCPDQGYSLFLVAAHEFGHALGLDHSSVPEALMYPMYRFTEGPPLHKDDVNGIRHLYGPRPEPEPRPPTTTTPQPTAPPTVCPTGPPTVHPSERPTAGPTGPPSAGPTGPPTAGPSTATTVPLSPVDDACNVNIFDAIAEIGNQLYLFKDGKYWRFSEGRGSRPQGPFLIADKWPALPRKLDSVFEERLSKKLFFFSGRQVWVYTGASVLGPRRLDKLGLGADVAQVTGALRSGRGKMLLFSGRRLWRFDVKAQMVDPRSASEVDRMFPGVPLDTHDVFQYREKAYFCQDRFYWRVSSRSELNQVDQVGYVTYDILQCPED

In turn, “human recombinant MMP9 (R&D Systems, catalog No: 911-MP)” gave a Probe Cleavage (kcat/KM) of 41000 M⁻¹ s⁻¹ and a Probe Cleavage (pM/s) of 87.7 pM/s.

Values taken from US20260049148.
